From patent US20130209454A1 (CALIFORNIA INSTITUTE OF TECHNOLOGY, published 2013)

Experiments:
Assay in all cases: cell-based or functional assay
[1] = biological target: HIV-1 Env of strain Du172.17 (HIV-1)
[2] = biological target: HIV-1 Env of strain THRO4156.18 (HIV-1)
[3] = biological target: HIV-1 Env of strain WITO4160.33 (HIV-1)
[4] = biological target: HIV-1 Env of strain T255-34 (HIV-1)
[5] = biological target: HIV-1 Env of strain RHPA4259.7 (HIV-1)
[6] = biological target: HIV-1 Env of strain ZM249M.PL1 (HIV-1)
[7] = biological target: HIV-1 Env of strain 211-9 (HIV-1)
[8] = biological target: HIV-1 Env of strain ZM109F.PB4 (HIV-1)
[9] = biological target: HIV-1 Env of strain 62357_14_D3_4589 (HIV-1)
[10] = biological target: HIV-1 Env of strain 1054_07_TC4_1499 (HIV-1)
[11] = biological target: HIV-1 Env of strain CNE17 (HIV-1)
[12] = biological target: HIV-1 Env of strain T257-31 (HIV-1)
[13] = biological target: HIV-1 Env of strain Du156.12 (HIV-1)
[14] = biological target: HIV-1 Env of strain T250-4 (HIV-1)
[15] = biological target: HIV-1 Env of strain 3016.v5.c45 (HIV-1)
[16] = biological target: HIV-1 Env of strain C2101.c01 (HIV-1)
[17] = biological target: HIV-1 strain CAP45.2.00.G3 envelope (gp120) (HIV-1)
[18] = biological target: HIV-1 strain 6540.v4.c1 envelope (gp120) (HIV-1)
[19] = biological target: HIV-1 strain C3347.c11 envelope (gp120) (HIV-1)
[20] = biological target: HIV-1 strain 62357_14_D3_4589 envelope (gp120) (HIV-1)
[21] = biological target: HIV-1 strain X2131_C1_B5 envelope (gp120) (HIV-1)
[22] = biological target: HIV-1 strain T250-4 envelope (gp120) (HIV-1)
[23] = biological target: HIV-1 strain CNE20 envelope (gp120) (HIV-1)
[24] = biological target: HIV-1 strain 1056_10_TA11_1826 envelope (gp120) (HIV-1)
[25] = biological target: HIV-1 strain Q461.e2 envelope (gp120) (HIV-1)
[26] = biological target: HIV-1 strain CNE17 envelope (gp120) (HIV-1)
[27] = biological target: HIV-1 strain PVO.4 envelope (gp120) (HIV-1)
[28] = biological target: HIV-1 strain Ce703010054_2A2 envelope (gp120) (HIV-1)
[29] = biological target: HIV-1 strain CAAN5342.A2 envelope (gp120) (HIV-1)
[30] = biological target: HIV-1 strain Du172.17 envelope (gp120) (HIV-1)
[31] = biological target: HIV-1 strain ZM109F.PB4 envelope (gp120) (HIV-1)
[32] = biological target: HIV-1 strain 6535.3 envelope (gp120) (HIV-1)
[33] = biological target: HIV-1 strain 928-28 envelope (gp120) (HIV-1)
[34] = biological target: HIV-1 strain T251-18 envelope (gp120) (HIV-1)
[35] = biological target: HIV-1 strain QH0692.42 envelope (gp120) (HIV-1)
[36] = biological target: HIV-1 strain CAP45.2.00.G3 envelope (gp120) (HIV-1); remark: listed apart in the source
[37] = biological target: HIV-1 strain TRO.11 envelope (gp120) (HIV-1)
[38] = biological target: HIV-1 strain ZM214M.PL15 envelope (gp120) (HIV-1)
[39] = biological target: HIV-1 strain T257-31 envelope (gp120) (HIV-1)
[40] = biological target: HIV-1 strain SC422661.8 envelope (gp120) (HIV-1)
[41] = biological target: HIV-1 strain AC10.0.29 envelope (gp120) (HIV-1)
[42] = biological target: HIV-1 strain QH0692.42 envelope (gp120) (HIV-1); remark: listed apart in the source

B1: NIH45-46 IgG (antibody, V domains shown)
VH: QVRLSQSGGQMKKPGESMRLSCRASGYEFLNCPINWIRLAPGRRPEWMGWLKPRGGAVNYARKFQGRVTMTRDVYSDTAFLELRSLTSDDTAVYFCTRGKYCTARDYYNWDFEHWGRGAPVTVSS
VL: EIVLTQSPATLSLSPGETAIISCRTSQSGSLAWYQQRPGQAPRLVIYSGSTRAAGIPDRFSGSRWGADYNLSISNLESGDFGVYYCQQYEFFGQGTKVQVDI
- neutralization IC50 [1]: > 50 µg/mL
- neutralization IC50 [2]: 1.91 µg/mL
- neutralization IC50 [3]: 0.06 µg/mL
- neutralization IC50 [4]: 0.71 µg/mL
- neutralization IC50 [5]: 0.017 µg/mL
- neutralization IC50 [6]: 0.017 µg/mL
- neutralization IC50 [7]: > 50 µg/mL
- neutralization IC50 [8]: 0.095 µg/mL
- neutralization IC50 [9]: 0.06 µg/mL
- neutralization IC50 [10]: 0.113 µg/mL
- neutralization IC50 [11]: 0.261 µg/mL
- neutralization IC50 [12]: 0.49 µg/mL
- neutralization IC50 [13]: 0.02 µg/mL
- neutralization IC50 [14]: > 50 µg/mL
- neutralization IC50 [15]: > 30 µg/mL
- neutralization IC50 [16]: 12.8 µg/mL

B2: NIH45-46 IgG (antibody, V domains shown)
VH: B1 VH
VL: B1 VL
- neutralization IC80 [17]: > 50 µg/mL
- neutralization IC80 [18]: > 50 µg/mL
- neutralization IC80 [19]: 0.094 µg/mL
- neutralization IC80 [20]: 0.19 µg/mL
- neutralization IC80 [21]: 0.88 µg/mL
- neutralization IC80 [22]: > 50 µg/mL
- neutralization IC80 [23]: > 50 µg/mL
- neutralization IC80 [24]: 0.447 µg/mL
- neutralization IC80 [25]: 0.291 µg/mL
- neutralization IC80 [26]: 0.734 µg/mL
- neutralization IC80 [27]: 0.41 µg/mL
- neutralization IC80 [28]: 0.538 µg/mL
- neutralization IC80 [29]: 0.4 µg/mL
- neutralization IC80 [30]: > 50 µg/mL
- neutralization IC80 [31]: 0.437 µg/mL
- neutralization IC80 [32]: 0.54 µg/mL
- neutralization IC80 [33]: 0.64 µg/mL
- neutralization IC80 [34]: 3.68 µg/mL
- neutralization IC80 [35]: 1.71 µg/mL
- neutralization IC50 [36]: > 50 µg/mL
- neutralization IC50 [37]: 1.9 µg/mL
- neutralization IC50 [38]: 0.5 µg/mL
- neutralization IC50 [39]: 0.5 µg/mL
- neutralization IC50 [40]: 0.05 µg/mL
- neutralization IC50 [41]: 0.9 µg/mL
- neutralization IC50 [42]: 0.7 µg/mL
